Experimental data: the domain aggregation screens of Martell et al. (2025)

assay: soluble fraction after stress (log2 fold change); higher = more stays soluble; pooled small domains, quantitative proteomics; conditions: stress: pH 4
Summary of the method: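 Values are on a log2 scale, where higher means more of the domain stayed soluble after pH 4 stress. They are fold changes in the soluble amount of each domain from pooled custom libraries, measured by high-throughput quantitative proteomics. The fold change is taken to reflect aggregation propensity.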

Sequence | soluble fraction (log2)
HMGAISGEQREFYTVFRGHLNSHVGEFKVEDIENLLMKAKTEVPDLLEEEFLKMGEAILNRYRN | -0.966
HMERAFRILELFDLKQDELPITEIAERTGLPISTAHRLLSTLETLGYIAQNPDNGRYRLGLQTFVLGSR | -1.3
HMTSNKTVPYSELKGLISTGKIEYVGIGNTQIRAVSKSGAGIVTYTARRVIPDDTLIPELEKNGIAYGGI | 0.112
HMQERQREGFVQQLRGKYSGQVVMRLFPELQGKALGEFMRKFEAQWEDHEAVLAAMEAHEIESRLKVFK | -1.2
HMNEYLPEAVQKLLEVMEYDIPYTSNELMERLGLKAKEGFRRNYLHPAMEMKLIQMTIPDKPNSRNQRYLR | -0.248
HMAIVNVEVPSLVGKTEQEARNLLTEAGLKVNVVNDEDESKNDGVVLRQSKDAGTEVQEGTTITITVNKVS | -0.467
HMELVQIIGNNIRDLMTTRSVTITDLANYLNVSRQTLQNYLRGSNIIDSVKLVAVSDFFDVPVESLLQSK | -0.783
HMPRYSGMFAAWLHKALARMGKSMSDSARSAFTERVELDYSSANNELQKLSLLVGDRKVITEADVMRAIG | -0.0455
HMRMYDVNEYSDEELHRILDLSSPTDSELEARILQMIQKYKYTNGGDNEKMAVFFENIYHHFFD | -1.54
HMEGNFFADIRQELMRELDQEAEWSDVQILEKIDDLVLLRTRRSSLTVNEKEQLRKELFYSVRK | -0.394
HMVISNDEFEDYLNRATEQLVSELSSGKNPRDAVHDLALTFADQHNKSYDAYQRMADSLEARMHTL | -0.156
HMDEAEELYQAVQALKPKYREVILLHYYQGLRVGEIAAILRAPQSTVSIRLRRARQMLNRMLG | -0.0788
HMPPPVDLDKKGYKLRGIVLEDGRSAAFVFVPAEKRVVVLRENASGPVRLLETGMRRIRLQTPEGAGYLEL | -0.259
HMSNLTDLVSAKEAEVYLHFLESGSTAGMTEAELRAVRKIEELIQSNKIDYNGILRIRNETVK | -0.137
HMQSAEMTLDREGQPVQVRVELTGNEARITFLSDQEQTREALDAGMAQLRELLEQQGMVLAGVTV | -0.491
HMAKVDIPHEMVDQRIDEIVEEIKMNLESQNMSLDDYLKRMNQTEAQLRANYEATAAEQVRQGLV | -0.982
HMSEPFDMAVPLTSGGRRLDQVLAELLPQHSRNRLQGWIRDGLLTLDGVTVTEPKRKLAGGEQLALLLP | -0.238
HMEAGLRMPEQLTAFSALALLQKVRDSGPLTDAQKEQLDADVLRIEASHFGKADREALELEEILKQWLSRV | -0.889
HMKDMKISTQNILKELATNYPDQTAFRKNVIESTAKSMGYTGKDFYPMLTAETRVKIGTYDLSALLQTV | -0.197
HMINLGDLEVGHTYHTRMPILQNDLKYSHKSPIQIVAEHSIVYGVRVYIGFLNEHRVLVTADDV | -0.269
HMIQHFARKRRQLELAVQRLSGRMAETNGQVTADMQRLIQQVKALVAELSHVFSRAYLRRVLGGVALVIGS | -0.145
HMALLSNTVDELHAGMRLDSYLFESGLYPSRSFAVKQIEAGKVFLNGDAVTKKTLVSNGDFIVYELEE | -0.506
HMKNEVENLSYMINRIIEYRDLNNLSNKNLANKIGISEALLSYILNGRRKLSKEIQRKIALFLLND | -0.337
HMEGRTVMATTAVNVRSGPGTSYKILGVLYPGHTAQQIGNTRYGWAQVTWKGHTAYIAARYLRDS | 0.301
HMGVDASVDSKLDLLSQVLDSDQVKEQLPEAVLEQLAQNLDRWRSLHEESELQDDDIAELNRLLGLFGLG | -1.67

Sequence | soluble fraction (log2)
HMLKPVVLLGARGLTDAVEKEVERALDEHGLIKIHVPSDDREERDEIYTTLADKLNAARIQAIGKMLVLW | -0.00783
HMTEQKNNEQQNAVNEKKQALKQLMEKGKEKGSLSYNEVNALLDKLEFTEDQKAIVYDQLHSEDIELQ | 0.22
HMIDQSVVVQYLSKLTNTPYLKTREITMGEPYMQFERGEIKFQEYVEDIRALLPGGDRIDADRLRDIWMNS | -0.721
HMEFLLAIQPFVLLTDHANLTFLREQTDSMMKRIQINISGFEIEFRYVPGLTNILPDKMSRV | -0.199
HMEDYYKILGVQSNSNPDDIKKAYRKLSLKHHPDRGGDASEFKKINEAYQTLGTPEKRKMYDMQQNN | ≥ 0.43
HMFEDYLRMKGLSIVSFSKQTGIPISTLRNLNKIRYDKWKIRYLEELSNVLNKTIQEIIEELKNMG | -1.32
HMTLKVQLSEISKMVSLSYIAKKYFNKSQSWLSQRINGNTIHNKPAKFTSEELATLQFALKDIGNILNSTV | -0.658
HMDIGTYTVTASALNIRQYPTASSAKTGSYPNGSIVTIYEYLTDGSWGRTDDGWISMNYVSRRY | -1.37
HMSAGKKSFTNSEFRRFLDALGEGLIVKHKKLGEGVVVEIRGDKAVIQFGDEQRLYELKTLYEYDLLR | -0.874
HMTPIELIEKTIELIENERKVQKLQQKELALKADIPFPTYKDFIYKKRASLENILKLFIALRLF | -0.88
HMEHETTQLELNAPGQRLDAALALALPDTSRAQIQQWIKQGLVTDQAGTALLQASLKLKSPLNVVLQRPI | 0.0662
HMDEVLDQFVRGQIYGYIRANPGDIYSSIRDNLGLKNGVTTYHLDVLAREEYVYSEIDGTNRRFYPSGWEE | -2.23
HMGFYDLFINLADKVGSLADVTQILAEARINLVNVHILEIREEIDGIAQLTFSSEKDRQKALELLKTKYK | -1.52
HMLTLSGPEHAVVRALWPEPELDFDVLIRKTGLPSAQLMTLAMQLEMKKIIRRLPGRRLALMDDIRR | -0.716
HMQPIEIQDRITKAFERSAALEAKNINVEVDGHTVKLTGTVHSLTEKEEARKAAFFAPGVTKVENHLIVDY | -0.0498
HMGDLTVPDLSGLTVDQAKQRLKDMGLVLGKITTQEDSSKPDGVIISQSPSADGKINKGQLVDVVVNKLS | 0.206
HMLPITPGQKYKFVVKSAEEAAAIIRDKLGEMAQVISVRQVEGEGLARFLKSPKLEIIAQVPVA | -0.349
HMFGSKDVKRAIEDYAAAMSSQPRALSAPQRKVLIRHLATSGLLQLRGAAKIVADELGISRASVYNALKV | 0.193
HMEAEVIKTASDMADRNGLHNVSLKAIAENLGIRTPSLYNHIGSLDELLREIAHSGMRTMNE | -0.247
HMDVMNEIQQKAFDIYIQSASLKNDFTPISERALAKKLHDMGLKSSMSAIGRWKKKFGWVQSLQNKVTLA | -0.183
HMSDSISLTLNGDLRRFRAHATIADLVRDIGLDPVKVAVERNLEIVSRSTLEDVVLADGDRLEIVHFV | -2.67
HMANIAVTIPTGSSGDRIADILLQAGLIKDKQDFNQAVIAAGAEGKLRAGYFVIPSNATPAEIISILT | -0.253
HMKGQNRSEITAGARVKVVQKQDQRTGALTEGIVRDILTRSPHHPHGIKVRLESGIVGRVKDVL | -0.287
HMYNNGYVNSDRVNFRKGASTNSDIYKVLDKNTSVTILDYEGDWSKVKINDTVGYVYTKYITAG | -0.0882
HMNPSIALHDWLQSSEFKGSINLFAAALGMNPRTVEAWVYGRSTPSRRFWAKLYQITNLSRFRL | 0.22

Sequence | soluble fraction (log2)
HMGQERAVPDVKGQSFDMAQGNISRAGLKAVVTDSVYDSYARPGTVVEQSPIPLAKIKRGGTVYLTLVA | -0.0752
HMDTQKYDLNDDGRFDVQDVTYLQIKIAGDGELTDNQKKIADYNNDGKIDVQDVTSAQMLIS | -0.724
HMGDLEEAVKDFSEAIRLNDSWAEAYANRAVVYAEQGDAAQSDQDAEKARLLGVDQNRLNEMLNAVNS | -0.21
HMLKPIHKDWSPNGDAKEILLKAGITEEFIQKELPEFIMYWSERNEESDIWNSKFIAHIRRRWGRFS | -1.23
HMGLPLETVVTHATKLEIVRDGRVSGSIGLSAGVKVDVIALEGDNLQVRYRSLSGRVPVAHTGLAALA | -0.533
HMAFAVWVKLVAIGPNYAQLEIEQGTQRNVRTLRPGDDAPEGVRLLSLTPTHAEVQANGIARKLALGQGMA | -0.0174
HMSELLIVGSEQDNTRLDRFLADQYEEYTRSFLQKLIDQGNVSINGISVKKSGIKLKENDEIAVTLPEPQ | -0.588
HMDVSEITTIKWIIKETKLGINEKILIYVNSKNFTVETLMEGFEIMSKYLVENVSSDKIVYIKN | 0.22
HMGNIITQEAAVKLAQDRVPNATLVKIEYDFDDGRPVYEGELREGRWEYEFEIDAATGEFLKWEKD | -0.163
HMRIVQTDYRNFLSQVESGAVRSVQIDETQIRYTALDSGGKEIVYNTGKVDDPGLVNRLYDAGVEFSQVIP | -1.23
HMSAQQTFLRDAMRRLNMTRDSFAERIGVRRRALDTWLLPEDSSEYRTMPSIVEKFVGEILGREA | 0.112
HMAEDGNMTFEEYAKRWLARQVRYAPSTLESYRRMLGRVYPFIGAIPINRLRPIALENLLAELRKRT | -0.0982
HMGATFITSSKDNAINIRQAAGTDSKVIETIKNGHILESSEKSGEWYKVTYYDSDIKKTFTGYIHNSQLK | -0.162
HMEGYLYLSESQNELILKNLKTPLKYNLYNASGKLIKKGNIKNTLDISELPKGVYIFTSSDNSFSKKFLKT | 0.276
HMAISEAERARLQTKIKERNKMARWINTNLNPTSKIRNINPAETVRKLMTQDDADSLERSLDAFMEA | 0.0822
HMPVQSNRDALLDIGQTLQVQAWDAQGSARVSYRGSDWTAEFRGPGAAAPGLHRIIAVQGNRLIVEPA | -0.164
HMIPEKEISYMMPDGFMPKELKIIHITESGRKQIYSAAHKPLDLVNVKAPFVPNTKVQIYINDVPIEELKI | -0.739
HMQSLAAKINGYIVAQRTSIAAIAKEIGYSRVTVSRYLAGKYDSDPTGIEAKLAAFLAGQTGEE | 0.114
HMAMMTKQRLIQLIHIARNDLQMDEDTYRQMLQGLTGKASTKGMDTPQLNRVLESMKKKGFRIK | ≥ 0.43
HMAAEGARNNSLFNSLRERALEVSSHNELEQIAFKMNETNIPPLRASEVISVVNSVWKNRISNQIIP | -0.0841
HMDDIVFPNPTKNQINVSIDGLKNIYNLSGKLLISTNDKIIDVSILKAGVYFINTNEQFYKFVK | -0.797
HMGSRAEAKEFLQTMLADGRQLATDMEEARQAHDIADRTLRRARKELNVQVYRDGNAWYWELPTPIK | -0.567
HMLIRKGVVSFFNDAKGYGFIKDLVTQESAFVHVNSLSETIKEHDKVTFEVEMGHKGANAVNVKLVK | -0.72
HMQISDVSLIAKVIDDVIDNNVKSVSDYLEGNLNVLRFLVGQVMKETKGKANPQKATELLQEKLESLNN | -0.386
HMERMTSTEILTRDFLTTNSKIVKKSTIEELSEIIHVSPATIIRTVKKMGYSGFSEYKNELINQ | 0.0482
